Laboratory results from US20200025774A1 (ENTEROME S A, published 2020).

B1: peptide 1I9A (peptide)
peptide: ILPFGFILA
B2: peptide 1A9V (peptide)
peptide: ALPFGFILV
B3: peptide 1F9M (peptide)
peptide: FLPFGFILM

Target: T1, HLA-A*0201 molecule expressed on human T2 cells (human)
T1 construct: also called HLA.A2.01
Assay: T2 cell HLA-A*0201 stabilisation assay, flow cytometry; ratio of the peptide concentrations inducing 20% of HLA-A*0201 expression
Description: T2 cells (2.10⁵ cells per well) were incubated with decreasing concentrations of peptides from 100 μM to 0.1 μM in a AIMV medium supplemented with 100 ng/μl of human β2m at 37° C. for 16 hours.
The analysis was performed by FACS (Guava Easy Cyte). […] The relative affinity is then determined as follows:

| Binder | In vitro binding affinity (relative affinity against reference peptide HIV pol 589-597) |
| --- | --- |
| B1 | 2.22 |
| B2 | 3.06 |
| B3 | 2.62 |
